Source: US20020098193A1
Values belong to the substance of their own block, whether it stands above or below them.

Tests used:
[1] = molecular target: Staphylococcal protein A (Staphylococcal) (UniProt P38507); experiment: direct binding of 125I-Fc-hinge fragments to SpA-agarose, pH 7.5
[2] = molecular target: complete murine IgG1 molecule (mouse); experiment: 125I-sFcRn on mIgG1-Sepharose, incubation at pH 6.0 in presence of 500 ug free mIgG1 (937,985 cpm added)
[3] = molecular target: complete murine IgG1 molecule (mouse); experiment: 125I-sFcRn on mIgG1-Sepharose, incubation at pH 6.0 (913,948 cpm added)
[4] = molecular target: complete murine IgG1 molecule (mouse); experiment: 125I-sFcRn on mIgG1-Sepharose, incubation at pH 7.5 (931,302 cpm added)
[5] = molecular target: complete murine IgG1 molecule (mouse); experiment: 125I-sFcRn on mIgG1-Sepharose, incubation at pH 7.5 (958,958 cpm added)
[6] = molecular target: complete murine IgG1 molecule (mouse); experiment: 125I-sFcRn on mIgG1-Sepharose, incubation at pH 7.5 (943,936 cpm added)
[7] = molecular target: complete murine IgG1 molecule (mouse); experiment: 125I-sFcRn on mIgG1-Sepharose, incubation at pH 6.0 (937,685 cpm added)
[8] = molecular target: recombinant soluble mouse FcRn (mouse) (UniProt Q61559); experiment: inhibition of 125I-sFcRn binding to murine IgG1-Sepharose; molar ratio of inhibitor/FcRn given as 1/1000
[9] = molecular target: recombinant soluble mouse FcRn (mouse) (UniProt Q61559); experiment: inhibition of 125I-sFcRn binding to murine IgG1-Sepharose; molar ratio of inhibitor/FcRn given as 1/500
[10] = molecular target: T1, FcRn of neonatal mouse intestine (mouse) (UniProt Q61559); experiment: cell-based or functional assay
T1 sequence (looked up): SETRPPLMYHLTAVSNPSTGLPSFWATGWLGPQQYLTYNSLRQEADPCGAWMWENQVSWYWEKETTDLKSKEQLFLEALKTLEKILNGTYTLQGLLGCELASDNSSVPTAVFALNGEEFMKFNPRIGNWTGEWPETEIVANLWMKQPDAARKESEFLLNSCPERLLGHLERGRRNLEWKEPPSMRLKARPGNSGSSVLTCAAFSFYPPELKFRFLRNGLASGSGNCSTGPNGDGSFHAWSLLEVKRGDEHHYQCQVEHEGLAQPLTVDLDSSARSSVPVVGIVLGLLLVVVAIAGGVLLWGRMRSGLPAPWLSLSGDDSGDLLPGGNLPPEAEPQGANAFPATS
T1 sequence (b2m, looked up): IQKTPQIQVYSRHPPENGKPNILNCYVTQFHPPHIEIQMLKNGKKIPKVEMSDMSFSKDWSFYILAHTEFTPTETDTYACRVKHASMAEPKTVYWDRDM

[11] = molecular target: recombinant soluble mouse FcRn (mouse) (UniProt Q61559); experiment: SPR (BIAcore 2000), FcRn coupled to CM5 chip, Fc-hinge 100-300 nM in flow, pH 6.0

- SpA binding, % of WT Fc-hinge [1]: 9 to 12 % of WT
Substance: H310A and H435A

- Inhibition of transmission (%) of radiolabeled mIgG1 across the intestine of neonatal mice [10]: 44.4%
Substance: HN-433 mutant Fc-hinge fragment

- % inhibition [8]: 6.1%
- % inhibition [9]: 1.6%
- Inhibition of transmission (%) of radiolabeled mIgG1 across the intestine of neonatal mice [10]: 8.9%
Substance: HQ-310 mutant Fc-hinge fragment

- % inhibition [8]: 34.1%
- % inhibition [9]: 18.4%
- Kd [11]: 7.44 nM
- koff [11]: 0.00461 s⁻¹
- kon [11]: 620000 M⁻¹ s⁻¹
Substance: wild type (WT) Fc-hinge fragment derived from murine IgG1 (from UniProt P01868 98-324)

- Inhibition of transmission (%) of radiolabeled mIgG1 across the intestine of neonatal mice [10]: 8.9%
Substance: bovine serum albumin (from UniProt P02769 25-607)

More lines, now with the values behind:

Substance: recombinant soluble mouse FcRn (from UniProt Q61559 22-290; P01887 21-119) (receptor)
- bound radioactivity [2]: 70700 cpm
- bound radioactivity after pH 7.5 wash [2]: 26500 cpm
- bound radioactivity [3]: 271000 cpm
- bound radioactivity after pH 7.5 wash [3]: 42600 cpm
- bound radioactivity [4]: 19600 cpm
- bound radioactivity after pH 7.5 wash [4]: 16800 cpm
- bound radioactivity [5]: 12300 cpm
- bound radioactivity after pH 7.5 wash [5]: 9470 cpm
- bound radioactivity [6]: 11600 cpm
- bound radioactivity after pH 7.5 wash [6]: 10300 cpm
- bound radioactivity [7]: 228000 cpm
- bound radioactivity after pH 7.5 wash [7]: 42700 cpm

Substance: I253A mutant Fc-hinge fragment (from UniProt P01868 98-324)
- % inhibition [8]: 6.5%
- % inhibition [9]: 2.3%

Substance: HQ-310/HN-433 mutant Fc-hinge fragment (from UniProt P01868 98-324)
- % inhibition [8]: 4%
- % inhibition [9]: 0.2%

Substance: Fc fragment of murine IgG1 produced by papain digestion (from UniProt P01868 98-324)
- Inhibition of transmission (%) of radiolabeled mIgG1 across the intestine of neonatal mice [10]: 62.5%

Substance: Fc-hybrid (heterodimer of WT Fc-hinge and HQ-310/HN-433 mutant)
- Inhibition of transmission (%) of radiolabeled mIgG1 across the intestine of neonatal mice [10]: 21.5%
